B1: Regulatory protein NPR1 (Arabidopsis thaliana (Mouse-ear cress)), P93002 (parent)
chain: MDTTIDGFADSYEISSTSFVATDNTDSSIVYLAAEQVLTGPDVSALQLLSNSFESVFDSPDDFYSDAKLVLSDGREVSFHRCVLSARSSFFKSALAAAKKEKDSNNTAAVKLELKEIAKDYEVGFDSVVTVLAYVYSSRVRPPPKGVSECADENCCHVACRPAVDFMLEVLYLAFIFKIPELITLYQRHLLDVVDKVVIEDTLVILKLANICGKACMKLLDRCKEIIVKSNVDMVSLEKSLPEELVKEIIDRRKELGLEVPKVKKHVSNVHKALDSDDIELVKLLLKEDHTNLDDACALHFAVAYCNVKTATDLLKLDLADVNHRNPRGYTVLHVAAMRKEPQLILSLLEKGASASEATLEGRTALMIAKQATMAVECNNIPEQCKHSLKGRLCVEILEQEDKREQIPRDVPPSFAVAADELKMTLLDLENRVALAQRLFPTEAQAAMEIAEMKGTCEFIVTSLEPDRLTGTKRTSPGVKIAPFRILEEHQSRLKALSKTVELGKRFFPRCSAVLDQIMNCEDLTQLACGEDDTAEKRLQKKQRYMEIQETLKKAFSEDNLELGNSSLTDSTSSTSKSTGGKRSNRKLSHRRR
partner: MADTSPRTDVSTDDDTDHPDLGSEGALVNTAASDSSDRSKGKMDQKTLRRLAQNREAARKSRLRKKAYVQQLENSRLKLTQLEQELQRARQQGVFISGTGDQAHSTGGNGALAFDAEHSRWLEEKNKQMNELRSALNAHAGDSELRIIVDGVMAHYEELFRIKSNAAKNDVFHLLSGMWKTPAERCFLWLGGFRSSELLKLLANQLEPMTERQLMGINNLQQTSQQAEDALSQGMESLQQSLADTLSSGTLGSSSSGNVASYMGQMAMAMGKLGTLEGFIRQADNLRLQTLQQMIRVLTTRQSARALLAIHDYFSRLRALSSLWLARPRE

Variants of: B1
Conditions: with tga2_arath TGA2, P43273

Variant | effect of a mutation on the interaction
MDTTIDGFADSYEISSTSFVATDNTDSSIVYLAAEQVLTGPDVSALQLLSNSFESVFDSPDDFYSDAKLVLSDGREVSFHRCVLSARSSFFKSALAAAKKEKDSNNTAAVKLELKEIAKDYEVGFDSVVTVLAYVYSSRVRPPPKGVSEYADENCCHVACRPAVDFMLEVLYLAFIFKIPELITLYQRHLLDVVDKVVIEDTLVILKLANICGKACMKLLDRCKEIIVKSNVDMVSLEKSLPEELVKEIIDRRKELGLEVPKVKKHVSNVHKALDSDDIELVKLLLKEDHTNLDDACALHFAVAYCNVKTATDLLKLDLADVNHRNPRGYTVLHVAAMRKEPQLILSLLEKGASASEATLEGRTALMIAKQATMAVECNNIPEQCKHSLKGRLCVEILEQEDKREQIPRDVPPSFAVAADELKMTLLDLENRVALAQRLFPTEAQAAMEIAEMKGTCEFIVTSLEPDRLTGTKRTSPGVKIAPFRILEEHQSRLKALSKTVELGKRFFPRCSAVLDQIMNCEDLTQLACGEDDTAEKRLQKKQRYMEIQETLKKAFSEDNLELGNSSLTDSTSSTSKSTGGKRSNRKLSHRRR [C150Y] | disrupting interaction

— IntAct's records for PubMed 18571510
